1 molecule from PMC11811199 (EMBO Reports, 2024) can be followed below.

In the assay the target is T1, DYRK4-His (UniProt Q9NR20 1-520).
T1 construct: also called recombinant DYRK4; pET30a-DYRK4-his; not shown: His, C-terminal, kept
T1 sequence (looked up): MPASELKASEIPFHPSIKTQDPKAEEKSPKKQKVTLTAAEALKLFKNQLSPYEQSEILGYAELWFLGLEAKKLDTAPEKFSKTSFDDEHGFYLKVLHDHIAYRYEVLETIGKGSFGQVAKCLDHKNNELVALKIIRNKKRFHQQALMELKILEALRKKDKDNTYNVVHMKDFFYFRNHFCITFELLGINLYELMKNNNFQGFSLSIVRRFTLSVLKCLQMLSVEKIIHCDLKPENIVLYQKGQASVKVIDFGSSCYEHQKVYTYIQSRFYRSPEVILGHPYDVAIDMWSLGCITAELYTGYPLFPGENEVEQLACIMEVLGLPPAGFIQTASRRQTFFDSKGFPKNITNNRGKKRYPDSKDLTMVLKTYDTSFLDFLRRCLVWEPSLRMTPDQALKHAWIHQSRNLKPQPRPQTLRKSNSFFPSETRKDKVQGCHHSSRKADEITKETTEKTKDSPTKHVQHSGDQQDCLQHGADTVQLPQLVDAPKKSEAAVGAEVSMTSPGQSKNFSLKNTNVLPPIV
The experiment in a line: pull-down. Conditions: both partners purified.

B1: GST-IRF3 (natural protein, UniProt Q14653 1-427, looked up)
chain: MGTPKPRILPWLVSQLDLGQLEGVAWVNKSRTRFRIPWKHGLRQDAQQEDFGIFQAWAEATGAYVPGRDKPDLPTWKRNFRSALNRKEGLRLAEDRSKDPHDPHKIYEFVNSGVGDFSQPDTSPDTNGGGSTSDTQEDILDELLGNMVLAPLPDPGPPSLAVAPEPCPQPLRSPSLDNPTPFPNLGPSENPLKRLLVPGEEWEFEVTAFYRGRQVFQQTISCPEGLRLVGSEVGDRTLPGWPVTLPDPGMSLTDRGVMSYVRHVLSCLGGGLALWRAGQWLWAQRLGHCHTYWAVSEELLPNSGHGPDGEVPKDKEGGVFDLGPFIVDLITFTEGSGRSPRYALWFCVGESWPQDQPWTKRLVMVKVVPTCLRALVEMARVGGASSLENTVDLHISNSHPLSLTSDQYKAYLQDLVEGMDFQGPGES
notes: also called pGEX6P-1-GST-IRF3; not shown: GST, N-terminal, kept
On to B1, for which the binding result is recorded as “binds”.
